# Experimental data taken from patent publication US20190359687A1 (Bayer, published 2019).
# No end group written: not given here.
# T1: human glycophorin A on human red blood cells or red blood cell membranes (human, UniProt P02724 20-150)
# T1 construct: whole, on cells; also called hRBC; human RBC membranes
# T1 sequence (looked up): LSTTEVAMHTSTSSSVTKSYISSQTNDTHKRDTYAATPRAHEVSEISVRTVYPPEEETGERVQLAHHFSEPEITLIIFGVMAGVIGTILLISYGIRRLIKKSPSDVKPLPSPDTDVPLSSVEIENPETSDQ
# T2: GP8 peptide of the human GPA ectodomain (human, not fully specified (N-terminus))
# T2 peptide: VRTVYPPE
# T3: native human glycophorin A protein (human, UniProt P02724 20-150)
# T3 construct: mature; also called Hu-nat GPA
# T3 sequence (looked up): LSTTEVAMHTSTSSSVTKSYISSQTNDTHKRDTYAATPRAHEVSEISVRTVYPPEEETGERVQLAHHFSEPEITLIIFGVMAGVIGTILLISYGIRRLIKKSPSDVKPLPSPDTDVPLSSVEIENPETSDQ
# T4: recombinant human glycophorin A ectodomain protein (human, UniProt P02724 20-91)
# T4 construct: 72 amino acids of the extracellular region; also called Hu-rec GPA
# T4 sequence: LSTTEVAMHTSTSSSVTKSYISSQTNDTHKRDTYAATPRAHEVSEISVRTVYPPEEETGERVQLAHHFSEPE
# Legend:
# [1] = molecular target: T1, human glycophorin A on human red blood …; experiment: SPR (Biacore), Fab on human RBC membranes;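 note: human RBC membranes captured on an L1 sensor chip, Fab fragments passed over as analyte, binding kinetics read by surface plasmon resonance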
# Protocol: (§1) Kinetic analysis of the antibody binding to human red blood cell membranes was also performed using surface plasmon resonance (SPR) using a Biacore instrument. In this assay membranes prepared from human red blood cells were attached to a L1 sensor matrix and antibodies were flowed over the RBC membranes.
# (§2) The binding kinetics of the affinity matured Fab antibodies was also measured.
# [2] = molecular target: T2, GP8 peptide of the human GPA ectodomain; experiment: ELISA, Fab 0.05 ug/ml on biotin-peptide on streptavidin plate
# Description: These peptides were attached to the surface of a streptavidin coated plate via a biotin moiety that was present at the N-terminus of each peptide.
# [3] = molecular target: T5, Cynomolgus monkey glycophorin A on Cynomolgus monkey red blood cells or red blood cell membranes (Cynomolgus monkey); experiment: Fab 7 ug/ml on intact cyno RBC, unbound Fab by ELISA; pre-dilution
# T5 construct: whole, on cells; also called Cyno RBC; Cynomolgus monkey RBC membranes
# [4] = molecular target: T1, human glycophorin A on human red blood …; experiment: SPR (Biacore), Fab on human RBC membranes; T½ = 0.69/kd; * not accurate;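 for kon: human RBC membranes captured on an L1 sensor chip, Fab fragments passed over as analyte, binding kinetics read by surface plasmon resonance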
# Protocol: as §1, §2
# [5] = molecular target: T1, human glycophorin A on human red blood …; experiment: SPR (Biacore), Fab on human RBC membranes; * not accurate, instrument limit;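 for kon: human RBC membranes captured on an L1 sensor chip, Fab fragments passed over as analyte, binding kinetics read by surface plasmon resonance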
# Protocol: as §1, §2
# [6] = molecular target: T5, Cynomolgus monkey glycophorin A on …; experiment: Fab on intact cyno RBC, unbound Fab by ELISA; 0 min after 200-fold dilution
# Protocol: (§3) The binding of affinity matured Fab antibodies to intact Cynomolgus monkey RBC was measured. Cynomolgus monkey RBC were isolated from fresh anti-coagulated blood by centrifugation through a ficol gradient and washing in PBS buffer. RBC diluted to 1/10th of normal hematocrit were incubated with the Fab at a final concentration of 7 ug/ml for 1 hour at room temperature on a rotating shaker after which a sample was taken and the RBC were pelleted by centrifugation and the supernatant was collected. The remaining RBC suspension was diluted 200-fold in PBS buffer and incubated for a total of 2 hours at room temperature on a rotating shaker and samples were removed at 0, 5 min, 20 min, 1 h and 2 h and the RBC pelleted and the supernatant collected. […] The amount of Fab in the supernatants was then measured using an ELISA assay and the results used to calculate the percentage of the input Fab that was bound to the RBC.
# [7] = molecular target: T5, Cynomolgus monkey glycophorin A on …; experiment: Fab on intact cyno RBC, unbound Fab by ELISA; 5 min after 200-fold dilution
# Protocol: as §3
# [8] = molecular target: T5, Cynomolgus monkey glycophorin A on …; experiment: Fab on intact cyno RBC, unbound Fab by ELISA; 20 min after 200-fold dilution
# Protocol: as §3
# [9] = molecular target: T5, Cynomolgus monkey glycophorin A on …; experiment: Fab on intact cyno RBC, unbound Fab by ELISA; 60 min after 200-fold dilution
# Protocol: as §3
# [10] = molecular target: T5, Cynomolgus monkey glycophorin A on …; experiment: Fab on intact cyno RBC, unbound Fab by ELISA; 120 min after 200-fold dilution
# Protocol: as §3
# [11] = molecular target: T3, native human glycophorin A protein; experiment: ELISA, Fab on coated native human GPA
# [12] = molecular target: T5, Cynomolgus monkey glycophorin A on …; experiment: ELISA, Fab on coated cyno RBC membranes
# [13] = molecular target: T1, human glycophorin A on human red blood …; experiment: ELISA, Fab on coated human RBC membranes
# Protocol: These membranes are prepared by first isolating red blood cells from citrated whole blood. Citrated whole blood is layered on to Ficol and centrifuged at low speed for 20 minutes to pellet the red blood cells. The supernatant containing plasma and other blood cells is discarded and the red blood cell pellet is subsequently washed 3 times in 10 cell volumes of phosphate buffered saline (PBS). A 10 ml pellet of purified red blood cells is resuspended in 30 ml of cold low osmorality 20 mM phosphate buffer (pH7.4) and incubated for 30 mins to break open the RBC. After Centrifugation at 10,000 rpm for 30 min at 5° C. the hemoglobin containing supernatant is discarded. To the membrane pellet another 30 ml of 20 mM phosphate buffer is added and the sample centrifuged again at 10,000 rpm for 30 min at 5° C. to pellet the membrane fraction. This wash and centrifugation step is repeated another 4 times. The red blood cell membranes are then resuspended in 20 mL of PBS to achieve an equivalent of approximately 2.5E9 cells/mL and stored frozen at −20° C. Binding of antibodies to RBC ghost can be measured by ELISA in which the RBC ghost suspension (5×10⁶ in 100 ul PBS) was added to each well of flat bottom 96-well ELISA microtiter plates (2HB, Immunolon) and the plates incubated overnight at 4° C. The plates were blocked with Starting blocking buffer (Thermo Fisher) for 2 hours at room temperature (RT). Antibodies or other test molecules were added to each well and incubated for 1.5 hours at RT. After 4 washes 100 ul of an appropriate detection antibody was added to each well and incubated for 1 hour at RT. After 4 washes the detection antibody was measured using appropriate detection reagents.
# [14] = molecular target: T6, Cynomolgus monkey recombinant glycophorin A ectodomain (Cynomolgus monkey); experiment: ELISA, Fab on coated recombinant cyno GPA ectodomain
# T6 construct: extracellular domain
# [15] = molecular target: T4, recombinant human glycophorin A …; experiment: ELISA, Fab on coated recombinant human GPA ectodomain
# [16] = molecular target: T1, human glycophorin A on human red blood …; experiment: SPR (Biacore), Fab on human RBC membranes; T½ = 0.69/kd;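 for kon: human RBC membranes captured on an L1 sensor chip, Fab fragments passed over as analyte, binding kinetics read by surface plasmon resonance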
# Protocol: as §1, §2
# [17] = molecular target: T1, human glycophorin A on human red blood …; experiment: SPR (Biacore), Fab over human RBC membranes, 1:1 fit; * slight deviation possible
# Protocol: as §1
binder,measurement,setting,value
"TPP-7790, affinity matured 6C12 Fab (Fab, V domains shown, Tested as Fab with a 6xHIS tag) VH: EVQLVQSGAEVKKPGASVKVSCKASGYTFTTYAIHWVRQAPGQGLEWMGYINPSSGYTRYNPKFKHRVTMTRDKSTSTAYMELRSLRSDDTAVYYCWTGTRDYWGQGTTVTVSS VL: DIQLTQSPSFLSASVGDRVTITCRASSSVRYIYWFQQKPGKAPKLLIYATSFLQSGVPSRFSGSGSGTEYTLTISSLQPEDFATYYCHQRNSFPYTFGQGTKLEIK",kon,[1],8.58e+06 M⁻¹ s⁻¹
same,binding signal in ELISA (relative light units),[2],83 RLU
same,percentage of input antibody bound,[3],94%
same,Estimated T½,[4],596 days
same,Kd,[5],< 0.00233 nM
same,koff,[5],< 2e-05 s⁻¹
same,percentage of input antibody bound,[6],87%
same,percentage of input antibody bound,[7],90%
same,percentage of input antibody bound,[8],90%
same,percentage of input antibody bound,[9],87%
same,percentage of input antibody bound,[10],85%
"TPP-5906, humanized and germlined 6C12 Fab; VL: (S24R, A26S, S49A, P54Q, F95Y); VH: (I48M, D56G, D66G, L70M, T72R) (Fab, V domains shown, The text says that a 6xHIS tag is present on the Fabs in the peptide ELISA; it is not in the printed chains) VH: EVQLVQSGAEVKKPGASVKVSCKASGYTFTTYTIHWVRQAPGQGLEWMGYINPSSGYTRYNPKFKGRVTMTRDKSTSTAYMELRSLRSDDTAVYYCQTGTRDYWGQGTTVTVSS VL: DIQLTQSPSFLSASVGDRVTITCRASSSVSYIYWFQQKPGKAPKLLIYATSTLQSGVPSRFSGSGSGTEYTLTISSLQPEDFATYYCHQRNSFPYTFGQGTKLEIKR",binding in ELISA relative to parental Fab,[11],12.9 relative to parental Fab
same,binding in ELISA relative to parental Fab,[12],2.5 relative to parental Fab
same,binding in ELISA relative to parental Fab,[13],93.5 relative to parental Fab
same,Kd,[1],0.707 nM
same,koff,[1],0.00504 s⁻¹
same,kon,[1],7.14e+06 M⁻¹ s⁻¹
same,binding in ELISA relative to parental Fab,[14],1.4 relative to parental Fab
same,binding in ELISA relative to parental Fab,[15],7.2 relative to parental Fab
same,Estimated T½,[16],0.00139 days
same,binding signal in ELISA (relative light units),[2],-1 RLU
same,Kd,[17],0.9 nM
same,koff,[17],0.0034 s⁻¹
same,kon,[17],4e+06 M⁻¹ s⁻¹
